{"source": "patent US7838288B2", "about": "“Modulators of odorant receptors” (Duke University, priority 2004, dated 2010)", "test_system": "MOR203-1", "assay": "Living-cell staining of cell-surface MOR203-1", "format": "cell-based, mouse", "details": "accessory protein co-transfected in 293T cells", "text": "After hypothesizing that mammalian ORs require accessory protein(s) for functional cell surface expression, a search was instituted for detecting such molecule(s). Long-SAGE (serial analysis of gene expression) libraries (see, e.g., Saha, S., et al., (2002) Nat Biotechnol 20, 508-512; herein incorporated by reference in its entirety) were constructed from single olfactory neurons as well as neurons from the vomeronasal organ and genes were collected that are expressed by these neurons. To identify candidate genes expressed by the olfactory neurons Digital Differential Display (see, e.g., http://www, followed by, .ncbi.nlm.nih.gov/UniGene/info_ddd.shtml) was also used. Candidate genes were investigated for ORFs that encode membrane associated proteins. Genes were selected with similarities to known chaperones and cloned the cDNAs from olfactory epithelium cDNAs. The mRNA expression of each gene was verified by in situ hybridization. After isolating and subcloning into mammalian expression vectors, each cDNA together with a mouse OR (MOR203-1) tagged with a 20 N-terminal amino acids of rhodopsin (Rho-tag), was transfected into 293T cells. We measured whether these clones had any effect on the cell-surface expression of ORs by staining living cells using antibodies against the Rho-tag (see, e.g., Laird, D. W., and Molday, R. S. (1988) Invest Opthalmol Vis Sci 29, 419-428; herein incorporated by reference in its entirety). When MOR203-1 was transfected alone, antibody staining detected only faint cell-surface expression in less than 1% of the cells. A schematic diagram outlining the screening procedure utilized with the present invention is provided at FIG. 1.\n293T cells were maintained in minimal essential medium containing 10% fetal bovine serum (M10). Lipofectamine 2000 (Invitrogen) was used for transfection. In live-cell staining, 16 hours after transfection, cells were incubated in M10 containing anti rhodopsin antibody, 4D2 (see, e.g., Laird, D. W., and Molday, R. S. (1988) Invest Opthalmol V is Sci 29, 419-428; herein incorporated by reference in its entirety) and 15 mM NaN3 at 4 degrees C. for 1 hour. After washing, cells were incubated with Cy3-conjugated anti mouse IgG (Jackson Immunologicals), washed and mounted. For FACS analysis, 4D2 and PE-conjugated anti mouse IgG (Jackson Immunologicals) were used to monitor the Rho tagged receptor expression. Anti HA rabbit antibodies (Sigma) and Alexa 488 conjugated anti rabbit IgG (Molecular Probes) was used to stain the HA-β2 adrenergic receptor. To establish the Hana3a cells, 1 ug/ml of puromycin was used for selection. 96 colonies were picked and assayed using luciferase assay using OREG.", "data": [{"molecule": "REEP2: other member of the REEP family; murine SEQ ID NO: 22 (protein, listed as Mus musculus) MVSWIISRLVVLIFGTLYPAYSSYKAVKTKNVKEYVKWMMYWIVFAFFTTAETLTDIILSWFPFYFELKIAFVIWLLSPYTKGSSVLYRKFVHPTLSNKEKEIDEYITQARDKSYETMMRVGKRGLNLAANAAVTAAAKGQGVLSEKLRSFSMQDLTLIRDEDALPLQGPDGRLQPGPVGLLDTIEDLGDEPALSLRSSTSQPDPRTETSEDDLGDKAPKRTKPIKKVPRAEPPASKTLKTRPKKKSSGGGDSA", "values": [{"measurement": "cell surface expression of MOR203-1", "result": "not observed"}]}]}
